# Source: patent US20260015417A1 (MEDIMABBIO, published 2026)
# T1: recombinant human TIGIT protein (Acrobiosystems) (human, UniProt Q495A1 22-141)
# T1 construct: Bought recombinant protein; NP_776160.2; UniProt Q495A1-1
# T1 sequence: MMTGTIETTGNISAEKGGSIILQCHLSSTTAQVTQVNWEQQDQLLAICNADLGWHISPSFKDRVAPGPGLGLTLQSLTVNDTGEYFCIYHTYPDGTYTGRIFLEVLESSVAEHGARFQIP
# Biological target: T1, recombinant human TIGIT protein …
# Assay: ELISA, plate coated with recombinant human TIGIT at 1 ug/ml, serial 1:3 dilutions from 61.097 nM, detection with anti-mouse/human IgG-HRP, OD 450 nm
# Procedure: An ELISA plate was coated with recombinant human TIGIT protein (Acrobiosystems, China) at a concentration of 1 μg/ml dissolved in PBS (Phosphate-Buffered Saline) and incubated overnight at 4° C. The plate was blocked with blocking buffer (3% (v/v) skim milk in PBS) for 1 hour, and serially diluted anti-TIGIT monoclonal antibody (7A6) and the fusion protein ([7A6]-[TL-2]-[IL-15]; denoted as ‘7A615TL-2’) (starting concentration: 61.097 nM; serial 1:3 dilutions) were added to the coated plate. After incubation, anti-mouse/human IgG-HRP antibody (Abcam: 1:10000 dilution) was added to each well. The plate was developed with TMB solution and stopped with 1N HCl. The OD value was read at 450 nm using the GloMax® Explorer Fully Loaded.
binder,measurement,value
"anti-TIGIT monoclonal antibody 7A6 (7A6_VH3/Vk5) (antibody, human IgG1, kappa, V domains shown, also called parent antibody; TIGIT mAb) VH: QVQLQESGPGLVKPSQTLSLTCTVTGYSITSDYAWNWIRQPPGKGLEWMGYISYSGSARYNPSLKSRVTISRDTSKNQFSLKLSSVTAEDTATYYCARKGYPAYFAYWGQGTLVTVSS VL: DIQMTQSPSSLSASVGDRVSITCKASQDVSTAVAWYQQKPGQAPRLLIYSASYRYTGVPDRFSGSGSGTDFTLTISSLQPEDFATYYCQHHYSTPYTFGQGTKLEIKR",EC50 (read off the curve),~2 nM
